Columns and labels:
[1] = molecular target: T1, StAR (Mus musculus, UniProt P51557); test: Cholesterol binding to StAR (filtration radioassays, native PAGE)
T1 construct: made in house; host or cells: three sources: dbcAMP-stimulated MA-10 cells (endogenous); COS 1 cells transfected with StAR cDNA; E. coli with pKK233-2/StAR
T1 sequence (P51557 63-284): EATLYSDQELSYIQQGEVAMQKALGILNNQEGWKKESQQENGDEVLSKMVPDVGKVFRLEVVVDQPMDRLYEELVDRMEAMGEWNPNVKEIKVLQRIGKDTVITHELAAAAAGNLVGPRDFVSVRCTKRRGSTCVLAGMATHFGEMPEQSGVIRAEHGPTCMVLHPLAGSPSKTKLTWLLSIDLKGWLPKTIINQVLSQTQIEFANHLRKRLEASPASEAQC
Source text: For these studies StAR proteins were obtained from three sources; (1) MA-10 cells stimulated with dbAMP; (2) monkey kidney cells (COS 1) transfected with StAR cDNA; and (3) expression of a recombinant pKK233-2/StAR plasmid in E. coli. Filtration radioassays and Steady-State (native) polyacrylamide gel electrophoresis were used to detect cholesterol binding to StAR. […] Thus, this study has provided evidence that cholesterol can bind to the StAR protein with high affinity.

[2] = molecular target: T1, StAR; test: Fluorescent sterol binding assay
[3] = system: COS 1 cells; test: Steroid production in COS 1 cells expressing StAR; format: cell-based, monkey; conditions: transient transfection of COS 1 cells, absence of hormone stimulation
Source text: Testicular tissue of two patients and genome DNA of a third patient with LCAH have mutations in the gene for StAR (Lin et al., Science, 267:1828-1831, 1995) (incorporated herein by reference). […] These truncations were confirmed by Western analysis following expression of the mutated cDNAs in COS cells. Virtually none of the precursor form of StAR expressed from the cDNA of these patients was converted to the mature mitochondrial form.
Also, increases in StAR mRNA and protein closely paralleled steroid production indicating a temporal relationship in these parameters.

[4] = system: MA-10 cells; test: Progesterone production in MA-10 cells transfected with the 30 kDa cDNA (radioimmunoassay); format: cell-based, mouse
Source text: Expression of the 30-kD Protein in MA-10 Cells and COS I Cells. The full length SalI-NotI 1456 base pair 30-kDa cDNA was subcloned into the eukaryotic expression vector, pCMV (Anderson, et al., 1989). MA-10 cells were transfected with DNA by a lipsome-mediated uptake using the LipofectAMINE reagent (Life Technologies, Inc. Gathersburg, Md.) (Hawley-Nelson, et al., 1993). Plasmid DNA used in transfection experiments were purified by CsCl density gradient followed by polyethylene glycol precipitation. The DNA was mixed with {fraction (1/10 )} the final volume of Waymouth's media minus serum and minus antibiotics (WAY^−) and added to an equal volume of WAY^− media containing the LipofectAMINE reagent. The DNA/lipid solution was gently mixed and incubated for 30 min at room temperature, then WAY^− media was added to achieve the final concentration of the DNA and LipofectAMINE reagent of 5 μg/ml and 20 μg/ml respectively. The cells were washed once with WAY^− media, incubated with transfection mix for 6 h, washed once with PBS, then incubated with Waymouth's plus 15% horse serum. The same procedure was used for transfection of COS 1 cells except Dulbecco's modified Eagle's media minus serum and antibiotics was used for the transfection media. For isolation of mitochondria for immunoblot analysis, cells were grown on 100-mm dishes. For progesterone production assays, MA-10 cells were plated into 96 well plates at 75,000 cells/well the day before the experiment. Typically, 8 wells each were transfected with either pCMV or pCMV+30-kDa cDNA for one experiment set.
Radioimmunoassay. 48 hours post-transfection, the growth medium was replaced with Waymouth's minus horse serum. After 6 h at 37° C. 5% CO2, progesterone was measured directly in the media by radioimmunoassay as previously described (Resko, et al., 1974). The progesterone antibody was obtained from Holly Hill Biologicals (Hillsboro, Oreg.).
MA-10 cells were transfected with the 30 kDa cDNA and progesterone production was measured as follows. The full-length cDNA was subcloned into the pCMW eukaryotic expression vector and transfected into MA-10 cells using LipofectAMINE (Life Technologies, Inc.). Cells (75,000 per well) were plated in a 96 well plate the day before transfection. The cells were incubated with the DNA/lipid transfection mixture for 6 hours, washed one time with PBS, and the incubated in Waymouths+15% horse serum. […] After 6 h, the medium was removed and progesterone was measured by radioimmunoassay. The cells were lysed directly in the wells with 0.1% SDS and protein was determined by the method of Bradford (1976). […] The transfected cells were not treated with hormone and progesterone was measured directly in the media after a 6 h incubation.

[5] = system: mitochondria isolated from MA-10 mouse Leydig tumor cells; test: In vitro reconstituted system: pregnenolone synthesis by isolated mitochondria; format: biochemical; conditions: protein added to isolated mitochondria
Source text: Rat heart mitochondria were used for the import assay with bovine StAR, indicating import of StAR is not dependent upon factors specific to mitochondria isolated from steroidogenic tissues. The ability of StAR to increase steroid production has also been confirmed in an in vitro reconstituted system.

[6] = system: COS 1 cells; conditions: expressed in COS1 cells (Lin et al., 1995); cited from earlier work

Molecule: CC(C)CCC[C@@H](C)[C@H]1CC[C@H]2[C@@H]3CC=C4C[C@@H](O)CC[C@]4(C)[C@H]3CC[C@]12C [cholesterol]
- specific binding to StAR [1]: 20-40 % of the total binding

Molecule: C[C@H](CNc1ccc([N+](=O)[O-])c2nonc12)[C@H]1CC[C@H]2[C@@H]3CC=C4C[C@@H](O)CC[C@]4(C)[C@H]3CC[C@]12C [NBD-cholesterol]
- affinity of binding to StAR [2]: nanomolar range

B1: StAR: LH-inducible mitochondrial 37 kDa precursor / 30 kDa mature protein, SEQ ID NO:2 (mouse) or 18 (human) (protein)
chain: MGQVRRRSSLLGSQLEATLYSDQELSYIQQGEVAMQKALGILNNQEGWKKESQQENGDEVLSKMVPDVGKVFRLEVVVDQPMDRLYEELVDRMEAMGEWNPNVKEIKVLQRIGKDTVITHELAAAAAGNLVGPRDFVSVRCTKRRGSTCVLAGMATHFGEMPEQSGVIRAEHGPTCMVLHPLAGSPSKTKLTWLLSIDLKGWLPKTIINQVLSQTQIEFANHLRKRLEASPASEAQC
- steroid production [3]: several fold increase
- average rate of progesterone produced ([4]; MA-10 cells expressing the 30 kDa protein): 166 pg progesterone produced per mg protein per hour
- increase in progesterone production above cells transfected with vector alone ([4]; MA-10 cells, absence of hormone stimulation): 1.5-3.5
- increase in steroidogenesis ([4]; expression of 30 kDa protein in MA-10 cells versus pCMV vector alone): 1.5 to 3.7 fold
- constitutive steroid production versus basal parental MA-10 cells ([4]; stable transfected MA-10 cell lines constitutively synthesizing the 30 kDa protein): about 9 x
- pregnenolone synthesis [5]: time- and dose-dependent increase
- increase in steroid production [6]: 8 fold
